The supplement of paper PMC7877785
± gives the uncertainty stated by the source.

Assay: self-splicing fitness, log relative to wild type (ln ratio); higher = more splicing; Tetrahymena group I intron in knt gene, E. coli kanamycin selection, DiMSum; sequences stand for … in CUCUCU…GGAGGGAAAAGUUAUCAGGCAUGCACCUGGUAGCUAGUCUUUAAACCAAUAGAUUGCAUCGGUUUAAAAGGCAAGACCGUCAAAUUGCGGGAAAGGGGUCAACAGCCGUUCAGUACCAAGUCUCAGGGGAAACUUUGAGAUGGCCUUGCAAAGGGUAUGGUAAUAAGCUGACGGACAUGGUCCUAACCACGCAGCCAAGUCCUAAGUCAACAGAUCUUCUGUUGAUAUGGAUGCAGUUCACAGACUAAAUGUCGGUCGGGGAAGAUGUAUUCUUCUCAUAAGAUAUAGUCGGACCUCUCCUUAAUGGGAGCUAGCGGAUGAAGUGAUGCAACACUGGAGCCGCUGGGAACUAAUUUGUAUGCGAAAGUAUAUUGAUUAGUUUUGGAGUACUCGUGGUCG
In short: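 Fitness was computed with DiMSum as the error-weighted combination of replicate fold changes, kanamycin versus none, each normalised to wild type. The library randomised all eight intron nucleotides of the P1ex region, with the intron placed in the knt kanamycin-resistance gene on pET-22b(+) in E. coli BL21(DE3). Six replicate transformations were grown overnight at 37°C or 30°C on LB agar with or without 25 μg/mL kanamycin, plus 100 μg/mL carbenicillin, 50 μM IPTG and 0.2% rhamnose. Pooled colonies were amplicon-sequenced on an Illumina HiSeq 2500.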

| Sequence | self-splicing fitness (ln) (30 °C) | self-splicing fitness (ln) (37 °C) |
| --- | --- | --- |
| AAAUAGCAAUAUUACGCUCA | -0.111 ± 0.13 | 0.39 ± 0.16 |
| CGAUAGCAAUAUUACGGAAU | -3.23 ± 0.16 | -2.01 ± 0.2 |
| GCCCAGCAAUAUUACGCCAG | -1.92 ± 0.13 | -2.32 ± 0.23 |
| AUCUAGCAAUAUUACGUACC | -1.3 ± 0.091 | -0.395 ± 0.11 |
| GCCCAGCAAUAUUACGGGUC | -4.06 ± 0.15 | -2.4 ± 0.16 |
| AGGUAGCAAUAUUACGUGAC | -2.734 ± 0.023 | -1.69 ± 0.037 |
| GGCCAGCAAUAUUACGAACA | -3.34 ± 0.28 | -2.03 ± 0.19 |
| UCGCAGCAAUAUUACGUGCG | -4.06 ± 0.22 | -3.23 ± 0.3 |
| GGAAAGCAAUAUUACGUAUA | -2.2 ± 0.16 | -1.16 ± 0.18 |
| GGAAAGCAAUAUUACGUAGG | -3.23 ± 0.12 | -2.23 ± 0.14 |
| AUCUAGCAAUAUUACGUACU | -0.329 ± 0.082 | -0.199 ± 0.11 |
| UACCAGCAAUAUUACGGUAU | -3.15 ± 0.16 | -2.35 ± 0.18 |
| GACAAGCAAUAUUACGUGAC | -1.47 ± 0.096 | -1.42 ± 0.12 |
| GGUAAGCAAUAUUACGCCGU | -1.93 ± 0.11 | -0.738 ± 0.13 |
| UGAAAGCAAUAUUACGGUGG | -1.22 ± 0.063 | -1.44 ± 0.093 |
| CGAUAGCAAUAUUACGCCAG | -1.35 ± 0.1 | -0.84 ± 0.15 |
| GGGCAGCAAUAUUACGAGAG | -4.06 ± 0.17 | -2.82 ± 0.16 |

| Sequence | self-splicing fitness (ln) (30 °C) | self-splicing fitness (ln) (37 °C) |
| --- | --- | --- |
| UGCGAGCAAUAUUACGUGUG | -2.78 ± 0.18 | -2.15 ± 0.15 |
| AGCUAGCAAUAUUACGCAGG | -3.49 ± 0.22 | -3.93 ± 0.33 |
| AAUCAGCAAUAUUACGCUGG | -2.63 ± 0.099 | -2.87 ± 0.087 |
| GCCAAGCAAUAUUACGUAUG | -2.94 ± 0.15 | -1 ± 0.13 |
| UUUAAGCAAUAUUACGAUCG | -0.416 ± 0.12 | 0.237 ± 0.17 |
| CUAAAGCAAUAUUACGGGGG | -1.87 ± 0.13 | -1.15 ± 0.13 |
| GCCAAGCAAUAUUACGCGUC | -1.31 ± 0.068 | -1.71 ± 0.088 |
| CCUGAGCAAUAUUACGGUAA | -3.76 ± 0.37 | -3.55 ± 0.25 |
| CGCCAGCAAUAUUACGAGUA | -2.79 ± 0.18 | -1.52 ± 0.18 |
| CAAAAGCAAUAUUACGUACA | -1.91 ± 0.1 | -1.54 ± 0.13 |
| UCAAAGCAAUAUUACGCGAU | – | -1.64 ± 0.23 |
| GCGUAGCAAUAUUACGUGCA | -1.53 ± 0.12 | -1.02 ± 0.13 |
| GCAUAGCAAUAUUACGUCCC | -1.38 ± 0.22 | 0.182 ± 0.21 |
| CGACAGCAAUAUUACGCGCU | -3.43 ± 0.12 | -1.91 ± 0.13 |
| UCAUAGCAAUAUUACGGACU | -2.63 ± 0.18 | -3.18 ± 0.43 |
| CUGCAGCAAUAUUACGGUAC | -4.59 ± 0.24 | -1.81 ± 0.21 |
